{
  "source": "paper PMC3586674",
  "binders": {"B1": {"name": "WT 20-mer (dsDNA)", "DNA 1": "CACTGTGAGAATTTTCTATT", "DNA 2": "AATAGAAAATTCTCACAGTG"}},
  "biological_target": "T1, ECudA (Entamoeba histolytica, UniProt Q24859 1-283)",
  "T1 sequence": "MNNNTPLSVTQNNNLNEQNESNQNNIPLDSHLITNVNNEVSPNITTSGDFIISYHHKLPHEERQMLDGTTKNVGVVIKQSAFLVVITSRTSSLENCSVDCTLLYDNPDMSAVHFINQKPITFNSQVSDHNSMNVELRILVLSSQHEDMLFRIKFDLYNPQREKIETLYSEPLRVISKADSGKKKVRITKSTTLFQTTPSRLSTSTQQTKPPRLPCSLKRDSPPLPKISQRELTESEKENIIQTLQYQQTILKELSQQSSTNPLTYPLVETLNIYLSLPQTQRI",
  "test": "competition",
  "data": [
    {"binder": "B1", "values": [
      {"measurement": "binding result", "value": "binds"}
    ]}
  ]
}
